Drawing on publication PMC2919377, “A Nuclear Family A DNA Polymerase from Entamoeba histolytica Bypasses Thymine Glycol” (PLoS Neglected Tropical Diseases, 2010), this text covers Km and Vmax for one protein.

What all share (assay): purified protein
What all share (type): biochemical, Entamoeba histolytica
Common to all, as to conditions: opposite cognate template base, primer-template DNA, optimised buffer (Mg2+ optimum 2.5 mM, pH optimum 7.5), 37 °C

Substrate in data set [1]: Cc1cn([C@H]2C[C@H](O)[C@@H](COP(=O)(O)OP(=O)(O)OP(=O)(O)O)O2)c(=O)[nH]c1=O
Substrate in data set [2]: Nc1ccn([C@H]2C[C@H](O)[C@@H](COP(=O)(O)OP(=O)(O)OP(=O)(O)O)O2)c(=O)n1
Substrate in data set [3]: Nc1nc2c(ncn2[C@H]2C[C@H](O)[C@@H](COP(=O)(O)OP(=O)(O)OP(=O)(O)O)O2)c(=O)[nH]1
Substrate in data set [4]: Nc1ncnc2c1ncn2[C@H]1C[C@H](O)[C@@H](COP(=O)(O)OP(=O)(O)OP(=O)(O)O)O1

B1: EhDNApolA (Entamoeba histolytica HM-1:IMSS) (protein)
chain: MEKTPRNSVDDLLMLFEDVKDNNKPVDYTKLESEETKKTENKERRKSLSINVNDEIPEKRKRKSIKQEGTPQPKVGAVFEIQYQHLPNKIDISELKELLEKIPKMEGKIMFNEKNLEQSIVINCTNNGIHALIGNSYVVLKKELLPEIINSRRLIIVYNLMEEIKNYRNNIKCILENFNTNNTIFDTYIGASTIDPGSVDGKTFSQICLVYEVIINKSTIEERLKQTRRLAVKEVEVMNNDNMIKVFQEQEMIIDGVLIEMNYCNEFKIDNKLLNEQRKKLIEEQHKIEMETKKIIGRTINLSSPEQVKKELIRFNIGIDGIKKKATTDKKILSQSDHPFAKLVLEYRKISKLLSGVIEQIRKCCIKSGDEYFIRTTWSQTAIVTGRIQSKSPNLQQIPKQSFSLPQCLIIPRDLFITHNNNTFVAIDYNQIELRILADFTKDHHLIEFFKSNTDVHRLIAAHWLKKNVNDITDDERRKAKTIVYGCIYGIGPFSLADQLHVSLDESKAFLESFLDQFPAFKKWKEETITNASTTGFVHTINNRRRRINNLTDCNDKKTVAESKRIAVNSPIQGTAADIIKMCMIEIFKKLHSSWVGVQLLLNIHDEIVLEVPDHLLDEVCVTLKHLMEHIVKLEVPLVVTVETGKKWGSLHPYNLN
notes: full-length ORF, 657 aa, about 75 kDa, N-terminal 6-His tag (pCOLD I), expressed in E. coli BL21 DE3-Rosetta II; Ni-NTA and phosphocellulose
Consider B1, for which the Km was determined as 1.49 ± 0.3 µM in “purified protein [1]”, 2.1 ± 0.3 µM in “purified protein [2]”, 1.56 ± 0.2 µM in “purified protein [3]” and 2.3 ± 0.2 µM in the data set “purified protein [4]”. For the same protein, the Vmax was found to be 0.0029 µmol/min in “purified protein [1]”, 0.0032 µmol/min in “purified protein [2]”, 0.0035 µmol/min in the data set “purified protein [3]” and 0.0033 µmol/min in “purified protein [4]”.
